Data taken from US20210032299A1 (Eli Lilly, published 2021).
Starred links: 1 amine or outer side, 2 acyl side, 3 side chain; linkers in the order of their positions; H or OH if unused. Non-standard residues stand in square brackets, D forms with d. Groups on a side chain read outwards from the residue. No end group written: not given here. *: point of attachment. C20 diacid = O=C(O)CCCCCCCCCCCCCCCCCCC(=O)*; γGlu = O=C(O)[C@H](CCC(=O)[*:2])N[*:1]; αMeF = C[C@](N)(Cc1ccccc1)C(=O)O; 4Pal = N[C@@H](Cc1ccncc1)C(=O)O; αMeL = CC(C)C[C@](C)(N)C(=O)O; AEEA = NCCOCCOCC(=O)O; Aib = CC(C)(N)C(=O)O

T1: human glucose-dependent insulinotropic peptide receptor (human, UniProt P48546 22-466)
T1 sequence (looked up): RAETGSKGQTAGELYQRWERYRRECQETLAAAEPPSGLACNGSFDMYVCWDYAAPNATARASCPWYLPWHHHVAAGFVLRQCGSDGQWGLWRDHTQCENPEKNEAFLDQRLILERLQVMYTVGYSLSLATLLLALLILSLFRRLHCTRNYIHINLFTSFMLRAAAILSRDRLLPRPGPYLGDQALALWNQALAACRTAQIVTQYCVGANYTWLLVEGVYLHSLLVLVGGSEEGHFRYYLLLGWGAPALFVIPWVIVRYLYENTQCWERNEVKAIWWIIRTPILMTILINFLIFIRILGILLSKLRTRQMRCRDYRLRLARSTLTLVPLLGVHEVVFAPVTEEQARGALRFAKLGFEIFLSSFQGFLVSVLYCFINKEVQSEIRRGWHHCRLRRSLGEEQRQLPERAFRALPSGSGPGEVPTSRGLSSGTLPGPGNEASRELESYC

B1: Example 42 (peptide)
peptide: Y[Aib]EGT[αMeF]ISDYSIALDKK([AEEA-AEEA-γGlu-C20 diacid])HQ[Aib]DFVE[4Pal]LLEQGPSSGAPPPS-NH2
modifications: N-terminus assumed
SMILES: CC[C@H](C)[C@H](NC(=O)[C@H](CO)NC(=O)[C@H](Cc1ccc(O)cc1)NC(=O)[C@H](CC(=O)O)NC(=O)[C@H](CO)NC(=O)[C@@H](NC(=O)[C@](C)(Cc1ccccc1)NC(=O)[C@@H](NC(=O)CNC(=O)[C@H](CCC(=O)O)NC(=O)C(C)(C)NC(=O)[C@@H](N)Cc1ccc(O)cc1)[C@@H](C)O)[C@@H](C)CC)C(=O)N[C@@H](C)C(=O)N[C@@H](CC(C)C)C(=O)N[C@@H](CC(=O)O)C(=O)N[C@@H](CCCCN)C(=O)N[C@@H](CCCCNC(=O)COCCOCCNC(=O)COCCOCCNC(=O)CC[C@H](NC(=O)CCCCCCCCCCCCCCCCCCC(=O)O)C(=O)O)C(=O)N[C@@H](Cc1c[nH]cn1)C(=O)N[C@@H](CCC(N)=O)C(=O)NC(C)(C)C(=O)N[C@@H](CC(=O)O)C(=O)N[C@@H](Cc1ccccc1)C(=O)N[C@H](C(=O)N[C@@H](CCC(=O)O)C(=O)N[C@@H](Cc1ccncc1)C(=O)N[C@@H](CC(C)C)C(=O)N[C@@H](CC(C)C)C(=O)N[C@@H](CCC(=O)O)C(=O)N[C@@H](CCC(N)=O)C(=O)NCC(=O)N1CCC[C@H]1C(=O)N[C@@H](CO)C(=O)N[C@@H](CO)C(=O)NCC(=O)N[C@@H](C)C(=O)N1CCC[C@H]1C(=O)N1CCC[C@H]1C(=O)N1CCC[C@H]1C(=O)N[C@@H](CO)C(N)=O)C(C)C
B2: Example 43 (peptide)
peptide: Y[Aib]EGT[αMeF]ISDYSIALDKK([AEEA-AEEA-γGlu-C20 diacid])HQ[Aib]DFVE[4Pal]LLEAGPSSGAPPPS-NH2
modifications: N-terminus assumed
SMILES: CC[C@H](C)[C@H](NC(=O)[C@H](CO)NC(=O)[C@H](Cc1ccc(O)cc1)NC(=O)[C@H](CC(=O)O)NC(=O)[C@H](CO)NC(=O)[C@@H](NC(=O)[C@](C)(Cc1ccccc1)NC(=O)[C@@H](NC(=O)CNC(=O)[C@H](CCC(=O)O)NC(=O)C(C)(C)NC(=O)[C@@H](N)Cc1ccc(O)cc1)[C@@H](C)O)[C@@H](C)CC)C(=O)N[C@@H](C)C(=O)N[C@@H](CC(C)C)C(=O)N[C@@H](CC(=O)O)C(=O)N[C@@H](CCCCN)C(=O)N[C@@H](CCCCNC(=O)COCCOCCNC(=O)COCCOCCNC(=O)CC[C@H](NC(=O)CCCCCCCCCCCCCCCCCCC(=O)O)C(=O)O)C(=O)N[C@@H](Cc1c[nH]cn1)C(=O)N[C@@H](CCC(N)=O)C(=O)NC(C)(C)C(=O)N[C@@H](CC(=O)O)C(=O)N[C@@H](Cc1ccccc1)C(=O)N[C@H](C(=O)N[C@@H](CCC(=O)O)C(=O)N[C@@H](Cc1ccncc1)C(=O)N[C@@H](CC(C)C)C(=O)N[C@@H](CC(C)C)C(=O)N[C@@H](CCC(=O)O)C(=O)N[C@@H](C)C(=O)NCC(=O)N1CCC[C@H]1C(=O)N[C@@H](CO)C(=O)N[C@@H](CO)C(=O)NCC(=O)N[C@@H](C)C(=O)N1CCC[C@H]1C(=O)N1CCC[C@H]1C(=O)N1CCC[C@H]1C(=O)N[C@@H](CO)C(N)=O)C(C)C
B3: Example 44 (peptide)
peptide: Y[Aib]EGT[αMeF]ISDYSIALDKK([AEEA-AEEA-γGlu-C20 diacid])HQ[Aib]DFVE[4Pal]LLEGGPSSGAPPPS-NH2
modifications: N-terminus assumed
SMILES: CC[C@H](C)[C@H](NC(=O)[C@H](CO)NC(=O)[C@H](Cc1ccc(O)cc1)NC(=O)[C@H](CC(=O)O)NC(=O)[C@H](CO)NC(=O)[C@@H](NC(=O)[C@](C)(Cc1ccccc1)NC(=O)[C@@H](NC(=O)CNC(=O)[C@H](CCC(=O)O)NC(=O)C(C)(C)NC(=O)[C@@H](N)Cc1ccc(O)cc1)[C@@H](C)O)[C@@H](C)CC)C(=O)N[C@@H](C)C(=O)N[C@@H](CC(C)C)C(=O)N[C@@H](CC(=O)O)C(=O)N[C@@H](CCCCN)C(=O)N[C@@H](CCCCNC(=O)COCCOCCNC(=O)COCCOCCNC(=O)CC[C@H](NC(=O)CCCCCCCCCCCCCCCCCCC(=O)O)C(=O)O)C(=O)N[C@@H](Cc1c[nH]cn1)C(=O)N[C@@H](CCC(N)=O)C(=O)NC(C)(C)C(=O)N[C@@H](CC(=O)O)C(=O)N[C@@H](Cc1ccccc1)C(=O)N[C@H](C(=O)N[C@@H](CCC(=O)O)C(=O)N[C@@H](Cc1ccncc1)C(=O)N[C@@H](CC(C)C)C(=O)N[C@@H](CC(C)C)C(=O)N[C@@H](CCC(=O)O)C(=O)NCC(=O)NCC(=O)N1CCC[C@H]1C(=O)N[C@@H](CO)C(=O)N[C@@H](CO)C(=O)NCC(=O)N[C@@H](C)C(=O)N1CCC[C@H]1C(=O)N1CCC[C@H]1C(=O)N1CCC[C@H]1C(=O)N[C@@H](CO)C(N)=O)C(C)C
B4: Example 45 (peptide)
peptide: Y[Aib]EGTFISDYSI[αMeL]LDKK([AEEA-AEEA-γGlu-C20 diacid])HQ[Aib]DFVE[4Pal]LLETGPSSGAPPPS-NH2
modifications: N-terminus assumed
SMILES: CC[C@H](C)[C@H](NC(=O)[C@H](Cc1ccccc1)NC(=O)[C@@H](NC(=O)CNC(=O)[C@H](CCC(=O)O)NC(=O)C(C)(C)NC(=O)[C@@H](N)Cc1ccc(O)cc1)[C@@H](C)O)C(=O)N[C@@H](CO)C(=O)N[C@@H](CC(=O)O)C(=O)N[C@@H](Cc1ccc(O)cc1)C(=O)N[C@@H](CO)C(=O)N[C@H](C(=O)N[C@@](C)(CC(C)C)C(=O)N[C@@H](CC(C)C)C(=O)N[C@@H](CC(=O)O)C(=O)N[C@@H](CCCCN)C(=O)N[C@@H](CCCCNC(=O)COCCOCCNC(=O)COCCOCCNC(=O)CC[C@H](NC(=O)CCCCCCCCCCCCCCCCCCC(=O)O)C(=O)O)C(=O)N[C@@H](Cc1c[nH]cn1)C(=O)N[C@@H](CCC(N)=O)C(=O)NC(C)(C)C(=O)N[C@@H](CC(=O)O)C(=O)N[C@@H](Cc1ccccc1)C(=O)N[C@H](C(=O)N[C@@H](CCC(=O)O)C(=O)N[C@@H](Cc1ccncc1)C(=O)N[C@@H](CC(C)C)C(=O)N[C@@H](CC(C)C)C(=O)N[C@@H](CCC(=O)O)C(=O)N[C@H](C(=O)NCC(=O)N1CCC[C@H]1C(=O)N[C@@H](CO)C(=O)N[C@@H](CO)C(=O)NCC(=O)N[C@@H](C)C(=O)N1CCC[C@H]1C(=O)N1CCC[C@H]1C(=O)N1CCC[C@H]1C(=O)N[C@@H](CO)C(N)=O)[C@@H](C)O)C(C)C)[C@@H](C)CC
B5: Example 46 (peptide)
peptide: Y[Aib]EGTFISDYSI[αMeL]LDKK([AEEA-AEEA-γGlu-C20 diacid])HQ[Aib]DFVE[4Pal]LLEQGPSSGAPPPS-NH2
modifications: N-terminus assumed
SMILES: CC[C@H](C)[C@H](NC(=O)[C@H](Cc1ccccc1)NC(=O)[C@@H](NC(=O)CNC(=O)[C@H](CCC(=O)O)NC(=O)C(C)(C)NC(=O)[C@@H](N)Cc1ccc(O)cc1)[C@@H](C)O)C(=O)N[C@@H](CO)C(=O)N[C@@H](CC(=O)O)C(=O)N[C@@H](Cc1ccc(O)cc1)C(=O)N[C@@H](CO)C(=O)N[C@H](C(=O)N[C@@](C)(CC(C)C)C(=O)N[C@@H](CC(C)C)C(=O)N[C@@H](CC(=O)O)C(=O)N[C@@H](CCCCN)C(=O)N[C@@H](CCCCNC(=O)COCCOCCNC(=O)COCCOCCNC(=O)CC[C@H](NC(=O)CCCCCCCCCCCCCCCCCCC(=O)O)C(=O)O)C(=O)N[C@@H](Cc1c[nH]cn1)C(=O)N[C@@H](CCC(N)=O)C(=O)NC(C)(C)C(=O)N[C@@H](CC(=O)O)C(=O)N[C@@H](Cc1ccccc1)C(=O)N[C@H](C(=O)N[C@@H](CCC(=O)O)C(=O)N[C@@H](Cc1ccncc1)C(=O)N[C@@H](CC(C)C)C(=O)N[C@@H](CC(C)C)C(=O)N[C@@H](CCC(=O)O)C(=O)N[C@@H](CCC(N)=O)C(=O)NCC(=O)N1CCC[C@H]1C(=O)N[C@@H](CO)C(=O)N[C@@H](CO)C(=O)NCC(=O)N[C@@H](C)C(=O)N1CCC[C@H]1C(=O)N1CCC[C@H]1C(=O)N1CCC[C@H]1C(=O)N[C@@H](CO)C(N)=O)C(C)C)[C@@H](C)CC
B6: Example 47 (peptide)
peptide: Y[Aib]EGTFISDYSI[αMeL]LDKK([AEEA-AEEA-γGlu-C20 diacid])HQ[Aib]DFVE[4Pal]LLEGGPSSGAPPPS-NH2
modifications: N-terminus assumed
SMILES: CC[C@H](C)[C@H](NC(=O)[C@H](Cc1ccccc1)NC(=O)[C@@H](NC(=O)CNC(=O)[C@H](CCC(=O)O)NC(=O)C(C)(C)NC(=O)[C@@H](N)Cc1ccc(O)cc1)[C@@H](C)O)C(=O)N[C@@H](CO)C(=O)N[C@@H](CC(=O)O)C(=O)N[C@@H](Cc1ccc(O)cc1)C(=O)N[C@@H](CO)C(=O)N[C@H](C(=O)N[C@@](C)(CC(C)C)C(=O)N[C@@H](CC(C)C)C(=O)N[C@@H](CC(=O)O)C(=O)N[C@@H](CCCCN)C(=O)N[C@@H](CCCCNC(=O)COCCOCCNC(=O)COCCOCCNC(=O)CC[C@H](NC(=O)CCCCCCCCCCCCCCCCCCC(=O)O)C(=O)O)C(=O)N[C@@H](Cc1c[nH]cn1)C(=O)N[C@@H](CCC(N)=O)C(=O)NC(C)(C)C(=O)N[C@@H](CC(=O)O)C(=O)N[C@@H](Cc1ccccc1)C(=O)N[C@H](C(=O)N[C@@H](CCC(=O)O)C(=O)N[C@@H](Cc1ccncc1)C(=O)N[C@@H](CC(C)C)C(=O)N[C@@H](CC(C)C)C(=O)N[C@@H](CCC(=O)O)C(=O)NCC(=O)NCC(=O)N1CCC[C@H]1C(=O)N[C@@H](CO)C(=O)N[C@@H](CO)C(=O)NCC(=O)N[C@@H](C)C(=O)N1CCC[C@H]1C(=O)N1CCC[C@H]1C(=O)N1CCC[C@H]1C(=O)N[C@@H](CO)C(N)=O)C(C)C)[C@@H](C)CC

Experiments:
Experiment in all cases: cell-based or functional assay
human glucagon receptor = human glucagon receptor (human, UniProt P47871 26-477)
[1] = target: T1, human glucose-dependent insulinotropic …
human GLP-1 receptor = human GLP-1 receptor (human, UniProt P43220 24-463)

Sequence of human glucagon receptor (P47871 26-477): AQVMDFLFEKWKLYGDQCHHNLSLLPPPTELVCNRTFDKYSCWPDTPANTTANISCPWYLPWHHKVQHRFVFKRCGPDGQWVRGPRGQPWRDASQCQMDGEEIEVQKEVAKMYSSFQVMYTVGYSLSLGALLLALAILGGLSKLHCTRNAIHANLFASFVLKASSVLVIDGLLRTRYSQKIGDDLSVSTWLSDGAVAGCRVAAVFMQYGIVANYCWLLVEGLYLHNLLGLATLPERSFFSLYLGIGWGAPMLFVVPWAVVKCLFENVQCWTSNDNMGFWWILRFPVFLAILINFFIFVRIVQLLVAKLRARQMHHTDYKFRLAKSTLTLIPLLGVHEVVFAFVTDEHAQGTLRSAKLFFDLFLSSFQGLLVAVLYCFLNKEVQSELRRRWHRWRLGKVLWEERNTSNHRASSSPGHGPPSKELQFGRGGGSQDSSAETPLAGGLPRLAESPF

Row | Binder | hGcgR cAMP Rel EC50 (human glucagon receptor) [nM] | hGIPR cAMP Rel EC50 [1] [nM] | hGLP1R cAMP Rel EC50 (human GLP-1 receptor) [nM]
1 | B1 | > 5000 | 0.0091 | 815
2 | B2 | > 5000 | 0.0154 | 1020
3 | B3 | > 5000 | 0.0084 | 1180
4 | B4 | 1690 | 0.049 | > 5000
5 | B5 | 863 | 0.0294 | > 5000
6 | B6 | 757 | 0.0234 | > 5000
